# Experimental data from patent publication US20090074795A1, “Methods for addressing ocular diseases through interference with the wnt signaling pathway” (priority 2007, published 2009).
# What was measured:
# [1] = test system: HUVEC; assay: DKK1 on VEGF over-expression in HUVEC transfected with VLDLR siRNA; assay type: cell-based; conditions: 10 μg/ml human DKK1, 24 hours, ELISA and RT-PCR, vs BSA
# Procedure: The regulatory roles of VLDLR and the wnt pathway in VEGF expression in cultured endothelial cells was also investigated.
# Vldlr^−/− mice received a subretinal injection of 5 μg purified mouse DKK1 into the right eyes, and the same amount BSA into the left eyes. According to embodiments shown in FIG. 9A, The eyecups were dissected 24 h following the injection for the following analyses, phosphorylated β-catenin and VEGF levels were measured by Western blot analysis of a representative mouse eyecup using the anti-phosphorylated β-catenin and anti-VEGF antibodies, respectively. According to embodiments shown in FIG. 9B, VEGF protein levels in Vldlr^−/− eyecups were measured using ELISA. According to embodiments shown in FIG. 9C, VEGF mRNA levels in the Vldlr^−/− eyecups were measured using quantitative real-time RT-PCR. Values are mean±SD (n=4). According to embodiments shown in FIGS. 9D-9G, Vldlr^−/− mice were injected with 5 μg/eye BSA into the subretinal space of the left eye (FIGS. 9D and 9F) and the same amount of DKK1 into the right eye (FIGS. 9E and 9G). […] VEGF protein was measured in the culture medium by ELISA (FIG. 9H) and the VEGF mRNA measured in the cells by real-time RT-PCR, normalized by 18s RNA and expressed as arbitrary unit (mean±SD, n=3) (FIG. 9I), 24 hours after the addition of DKK1. […]
# [2] = test system: bovine retinal capillary endothelial cells (BRCEC); assay: Intracellular ROS generation assay in BRCEC; assay type: cell-based; conditions: DKK1 6.25-100 nM, 2 h, CM-H2DCFDA
# Procedure: A primary culture of bovine retinal capillary endothelial cells (BRCEC) were exposed to 30 mM glucose or TNF-α in the absence or presence of various concentrations of DKK1 (6.25-100 nM) for 2 h. Aminoguanidine was used as a positive control as it is a known inhibitor of ROS generation.
# According to embodiments of experimental data shown in FIG. 14, BRCEC were exposed to 30 mM glucose or 1 μg/ml TNF-α in the absence or presence of various concentrations of DKK1 (6.25-100 nM) for 2 h, 10 μM aminoguanidine (AG) was used as positive control. Intracellular ROS generation was measured using CM-H2DCFDA, and expressed as fluorescent unit per well (means±SD, n=3).
# [3] = test system: STZ-diabetic BN rats; assay: Retinal vascular permeability in STZ-induced diabetic rats; assay type: in vivo, rat; conditions: STZ-diabetic BN rats 16 weeks, 3 μg/eye intravitreal, 48 h, vs BSA contralateral eye, P<0.05
# Procedure: To investigate if blockade of the wnt pathway reduces the retinal vascular hyper-permeability in diabetes, 3 μg purified DKK1 was intravitreally injected into the right eyes of STZ-diabetic BN rats at 16 weeks following the STZ injection, and the same amount of BSA into the contralateral eyes as control. The vascular permeability was measured at 48 h following the DKK1 injection.
# The retinal vascular permeability was measured using Evans blue as a tracer, 48 hr after the injection. Vascular permeability was expressed as % of the permeability in the contralateral control (mean±SD, n=4), P<0.05.
# Measurement of vascular permeability: Vascular permeability will be quantified by measuring FITC-BSA leakage from blood vessels into the retina following a method with modifications. The mice anesthetized and FITC-BSA (10 mg/kg body weight) is injected through the femoral vein under microscopic inspection. […] The fluoresce density of fluorescein-albumin from supernatant and serum is measured at excitation wave 485 nm/emission wave 530 nm. Retinal protein levels are measured in the pellet by Bradford assays with quantification at […]. The FITC-BSA levels in the retina are then calculated by the supernatant fluoresce density and normalized to retinal protein levels and normalized to serum FITC levels.
molecule,measurement,setting,value
"DKK1: Purified Dickkopf-1 protein (R&D System), specific inhibitor of the wnt pathway binding LRP5/6; mouse protein in mice, human in HUVEC (protein, UniProt O54908 32-272; O54908 32-272, looked up, mouse protein in mice, human in HUVEC) Dickkopf-related protein 1 1: TLNSVLINSNAIKNLPPPLGGAGGQPGSAVSVAPGVLYEGGNKYQTLDNYQPYPCAEDEECGSDEYCSSPSRGAAGVGGVQICLACRKRRKRCMRHAMCCPGNYCKNGICMPSDHSHFPRGEIEESIIENLGNDHNAAAGDGYPRRTTLTSKIYHTKGQEGSVCLRSSDCAAGLCCARHFWSKICKPVLKEGQVCTKHKRKGSHGLEIFQRCYCGEGLACRIQKDHHQASNSSRLHTCQRH Dickkopf-related protein 1 2: TLNSVLINSNAIKNLPPPLGGAGGQPGSAVSVAPGVLYEGGNKYQTLDNYQPYPCAEDEECGSDEYCSSPSRGAAGVGGVQICLACRKRRKRCMRHAMCCPGNYCKNGICMPSDHSHFPRGEIEESIIENLGNDHNAAAGDGYPRRTTLTSKIYHTKGQEGSVCLRSSDCAAGLCCARHFWSKICKPVLKEGQVCTKHKRKGSHGLEIFQRCYCGEGLACRIQKDHHQASNSSRLHTCQRH",VEGF over-expression induced by the VLDLR siRNA,[1],blocked the VEGF over-expression
same,ROS generation induced by TNF-α,[2]; 1 μg/ml TNF-α,blocked the ROS generation
same,ROS generation induced by high glucose,[2]; 30 mM glucose,blocked the ROS generation
same,retinal vascular permeability,[3],significantly reduced retinal vascular permeability
